The results in this text go back to patent US10000771B2, “Nuclear targeting sequences” (Yeda Research and Development Co. Ltd., priority 2007, dated 2018).

The test system of one test is CHO cells. The experiment in a line: Fluorescence microscopy of ERK2 constructs (subcellular localization). The note with it: overexpressed in CHO (and COS7) cells, serum-starved, fluorescent microscope. In kind it is cell-based. As to the method:
FIGS. 1A-1R are photomicrographs illustrating the role of SPS in the non-regulated accumulation of ERK2 in the nucleus. CHO (FIGS. 1A-F and 1M-R) or COS7 cells (FIGS. 1G-L) were grown on cover slips and transfected with WT-ERK2, or the mutants 244-6A and Δ244-6. Twenty-four hr following transfection, the cells were serum-starved (16 hr), fixed, stained with DAPI and visualized using a fluorescent microscope.
FIGS. 2A-2X are photomicrographs illustrating the role of SPS in the stimulated nuclear translocation of ERK2. CHO cells were grown on cover slips and co-transfected with HA-MEK1 together with either WT-ERK2, 244-6A, or Δ244-6. Twenty-four hr after transfection, the cells were serum starved for 16 hours, treated with TPA (250 nM, 15 min), except in WT-10 where the cells were treated with 10 nM TPA for 15 min. After treatments the cells were fixed and stained with either anti-HA Ab or DAPI.
FIGS. 5A-5F are photomicrographs illustrating that mutating the Ser residues in the SPS to Glu induces the nuclear accumulation of ERK2. CHO cells were grown on cover slips and transfected with WT-GFP-ERK2 (WT), APA-GFP-ERK2 (APA), or EPE-GFP-ERK2 (EPE). Twenty-four hr after transfection, the cells were serum-starved, fixed, stained with DAPI and visualized by a fluorescent microscope.
FIGS. 7A-7H are photomicrographs illustrating that EPE-ERKs translocates to the nucleus faster than WT-ERK. CHO cells were transfected with WT-GFP-ERK2 (WT) and EPE-GFP-ERK2 (EPE). Eight (FIGS. 7A-D) or twelve (FIGS. 7E-H) hours after transfection the cells were fixed, stained with DAPI and visualized by a fluorescent microscope.
Immunofluorescence Microscopy. Cells were fixed (30 min in 3% paraformaldehyde in PBS or 10 min with ice-cold methanol), followed by 5-min permeabilization with 0.2% Triton X-100 in PBS (23° C.). The fixed cells were sequentially incubated with the appropriate Abs (45 min) followed by rhodamine-conjugated secondary Abs (45 min) and DAPI. Slides were visualized using a fluorescence microscope (Nikon, Japan) at 400× magnifications. […]

The next test relates to Nup153c. The experiment in a line: Interaction with recombinant His-Nup153c. The test is classed as binding. Particulars: immunoprecipitated ERK2 incubated with 0.5 μg recombinant His-Nup153c. The method, then:
FIGS. 19A-19C are autoradiographs illustrating that phospho-SPS interacts with importin-7 and releases Nup153c binding without involvment of importin-β. […]. Interaction of ERK2 with Importin-7 is enhanced by EGF stimulation and EPE mutation. HeLa cells overexpressing WT-ERK (WT), ERK-APA (APA), ERK-EPE (EPE) or GFP were serum starved and treated with EGF (50 ng/ml, 10 min). The extracts of the treated cells were then subjected to coimmunoprecipitation using A/G beads pre-conjugated with anti GFP Ab and mild washes. The coimmunoprecipitated importin-7 (first panel) and importin-β (third panel), as well as their loading amounts (panels 2 and 4 respectively) were determined by WB using anti importin-7 (αImp7) and importin-β (αImpβ) Abs. The equal amount of immunoprecipitated ERKs was determined with anti GFP (αGFP; IP) Ab. FIG. 19B. Interaction of 2GFP-SPS and its mutants with importin-7. HeLa cells overexpressing 2GFP, 2GFP-SPS, 2GFP-APA and 2GFP-EPE constructs were subjected to coimmunoprecipitation as described in FIG. 19A (without EGF stimulation). FIG. 19C. Interaction of NUP153 with WTERK2 and its APA and EPE mutants. NUP153c is elevated in APA-ERK2, but reduced in EPE-ERK2. Immunoprecipitated and stringently washed WT-ERK2 (WT), APA-ERK2 (APA) or ERK2 from […] cells pre-treated with or without TPA (250 nM, 15 min) were incubated with 0.5 μg recombinant His-Nup153c. […]

A further test has as its system COS7 cells. The experiment in a line: Subcellular fractionation of GFP-ERK2 constructs. The test is classed as cell-based. The note with it: 48 hr after transfection, serum-starved. The method, then:
FIG. 6 is an autoradiograph illustrating the subcellular fractionation of WT-GFP-ERK2 (WT), APA-GFP-ERK2 (APA), or EPE-GFP-ERK2 (EPE). COS7 cells were grown in 10 cm plates and transfected with the above ERK2 constructs. Twenty-four hr after transfection the cells were serum-starved for 16 hr and subjected to cellular fractionation as described under materials and Methods. Western blot analysis of aliquots of the fractions were stained with anti GFP Ab to detect the ERK2 and its mutant, and with anti tubulin and anti c-Jun Abs as markers for the cytoplasmic and nuclear fractions respectively.
Cellular Fractionation: Transfected COS7 cells were starved (0.1% FBS) for 16 h, after which they were washed with ice-cold PBS, suspended in ice-cold buffer H, and centrifuged (12,000×g, 5 min). Then, the nuclear and cytosolic fractions were isolated as described [H. Rubinfeld, T. Hanoch, R. Seger, J. Biol. Chem. 274, 30349 (1999)]. Briefly, the pellets were suspended in 0.1% NP-40 followed by centrifugation (12,000×g, 5 min). The supernatant, containing the cytosolic fraction, was boiled in sample buffer. The pellet was suspended in extraction buffer (420 mM Nacl, 50 mM β-glycerophosphate, 0.5 mM Na3VO4, 1.5 mM MgCl2, 0.2 mM EDTA, 1 mM DTT, 25% glycerol), incubate on ice for 10 min, sonicated (50 W, 2×7 sec), and centrifuged (12,000×g, 5 min). […]

B1: APA-ERK2: GFP-ERK2 with the two Ser residues of the SPS sequence replaced by Ala (protein)
chain: MAAAAAAGPEMVRGQVFDVGPRYTNLSYIGEGAYGMVCSAYDNLNKVRVAIKKISPFEHQTYCQRTLREIKILLRFRHENIIGINDIIRAPTIEQMKDVYIVQDLMETDLYKLLKTQHLSNDHICYFLYQILRGLKYIHSANVLHRDLKPSNLLLNTTCDLKICDFGLARVADPDHDHTGFLTEYVATRWYRAPEIMLNSKGYTKSIDIWSVGCILAEMLSNRPIFPGKHYLDQLNHILGILGAPAQEDLNCIINLKARNYLLSLPHKNKVPWNRLFPNADSKALDLLDKMLTFNPHKRIEVEQALAHPYLEQYYDPSDEPIAEAPFKFDMELDDLPKEKLKELIFEETARFQPGYRS
modifications: left off: large carriers
As for B1, in the test with CHO cells, the “subcellular localization in quiescent cells” value was “cytoplasmic distribution”. In the test on Nup153c, the “interaction with Nup153” value is given as “increased”. The “localized in the nucleus” value in the test with COS7 cells is recorded as ~5%.
